Key:
bovine serum albumin = target: T1, bovine serum albumin (Bos taurus, UniProt P02769); experiment: galactose content of the protein modified with agarooligosaccharides (hydrolysis, 2-aminopyridine labelling, HPLC); type: biochemical; settings: reacted with agarooligosaccharides in PBS pH 7.2, 37° C., 24 hours
T1 construct: purchased Sigma A0281
Experimental: A solution containing the agarooligosaccharides as described in Example 1-(1) at a concentration of 100 mg/ml and a solution containing bovine serum albumin (Sigma, A0281) at a concentration of 11.1 mg/ml in PBS (pH 7.2) were mixed at a ratio of 1:9. The mixture was reacted at 37° C. for 24 hours to obtain a modification product of bovine serum albumin.
In order to confirm that the agarooligosaccharides were attached to the proteins, the modification products of the proteins were dialyzed to remove free agarooligosaccharides, and only high molecular weight fractions were collected by HPLC. HPLC was carried out as follows.
The protein concentrations in the separated fractions were determined by measuring the absorbances at 280 nm, and fractions containing the proteins were collected. As a control, unmodified counterparts for both of the proteins were also separated under the same conditions. Next, the galactose contents in the collected protein fractions were measured. […] The reducing ends of the resulting monosaccharides were fluorescence-labeled with 2-aminopyridine using GlycoTAG and GlycoTAG Reagent kit (both from Takara Shuzo). The sugar compositions were analyzed according to a conventional method by HPLC (Agric. Biol. Chem. 55, 283-284 (1991)) to determine the galactose contents in the respective protein fractions. […]

[1] = solubility of lyophilized modification products in water or PBS; type: physicochemical; settings: dissolved in water or PBS
Text: The modification products of bovine serum albumin and human immunoglobulin G separated using HPLC as described in Example 2 were adequately dialyzed against water and lyophilized. The lyophilized modification products and lyophilized unmodified counterparts for both of the proteins were similarly dissolved in water or PBS.

T1 sequence (P02769 25-607): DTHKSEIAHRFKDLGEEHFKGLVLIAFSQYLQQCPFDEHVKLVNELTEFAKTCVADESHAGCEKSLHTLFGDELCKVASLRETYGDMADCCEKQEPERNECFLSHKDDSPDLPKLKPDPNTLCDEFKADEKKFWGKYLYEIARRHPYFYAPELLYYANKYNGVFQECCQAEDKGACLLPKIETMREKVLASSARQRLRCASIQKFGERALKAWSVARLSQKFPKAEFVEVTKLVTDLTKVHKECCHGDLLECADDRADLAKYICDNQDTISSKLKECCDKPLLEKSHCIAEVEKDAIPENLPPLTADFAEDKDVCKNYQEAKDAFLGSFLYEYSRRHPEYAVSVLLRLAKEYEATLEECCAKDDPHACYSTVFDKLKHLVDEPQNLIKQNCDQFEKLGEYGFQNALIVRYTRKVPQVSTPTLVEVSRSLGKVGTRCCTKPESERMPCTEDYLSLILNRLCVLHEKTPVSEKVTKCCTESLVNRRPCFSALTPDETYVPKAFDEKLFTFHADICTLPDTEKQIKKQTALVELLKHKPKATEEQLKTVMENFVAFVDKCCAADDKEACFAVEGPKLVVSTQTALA

molecules of galactose attached to one molecule of the modification product (bovine serum albumin): eight
Substance: modification product of bovine serum albumin: bovine serum albumin reacted with the agarooligosaccharides in PBS at 37° C. for 24 hours
solubility compared with unmodified counterparts [1]: superior to that of the unmodified counterparts

— patent US20040077845A1, “Modifier” (priority 2001, published 2004)
